In US20120201828A1 (Sanofi, published 2012):

Each binder was assayed against T1, huEphA2-mFc (human, UniProt P29317 24-534, limits assumed) (assay: SPR, Biacore 3000; EphA2-Fc amine-coupled on C1 chip, IgG in flow, 25 C, 1:1 Langmuir fit).
T1 construct: Immobilised antigen of the Biacore experiment; also called EphA2-Fc; extra-cellular domain of EphA2 receptor-Fc; not shown: mouse Fc (mFc)
Procedure: pH=4.5) was coupled to the matrix of a C1 sensor chip (GE healthcare BR-1005-40) at 10 μl/min using a standard amine coupling protocol with EDC (N-ethyl-N′-[dimethyl-aminopropyl]carbodiimide)/NHS (N-hydroxysuccinimide). The density was controlled at an increased response level of ˜100 response units (RU) in kinetic binding experiments. IgGs were diluted in 0.01 M Hepes, pH 7.4 containing 0.15 M NaCl, 3 mM EDTA, and 0.005% P20. All subsequent dilutions were made in the same buffer. All binding experiments were performed at 25° C. with IgG concentrations typically ranging from 50 to 0.2 nM at a flow rate of 50 μl/min.
Data were collected for approximately 12 min (2 min association time and 10 min dissociation time) and 1 min pulse at 30 μl/min of 1M NaCl, 50 mM NaOH was used to regenerate the surfaces. IgGs were also flowed over an uncoated cell and the sensorgrams from the blank runs were substracted from those obtained with EphA2-Fc coupled chips. Data were fitted to a 1:1 Langmuir binding model with drifting baseline. This algorithm calculates both the kₒₙ and the koff, from which the apparent equilibrium dissociation constant KD, is deduced as the ratio of the two rate constants (koff/kₒₙ).
The affinity constant was first measured with both naked hu2H11 and hu2H11R35R74.

T1 sequence (P29317 24-534 limits assumed): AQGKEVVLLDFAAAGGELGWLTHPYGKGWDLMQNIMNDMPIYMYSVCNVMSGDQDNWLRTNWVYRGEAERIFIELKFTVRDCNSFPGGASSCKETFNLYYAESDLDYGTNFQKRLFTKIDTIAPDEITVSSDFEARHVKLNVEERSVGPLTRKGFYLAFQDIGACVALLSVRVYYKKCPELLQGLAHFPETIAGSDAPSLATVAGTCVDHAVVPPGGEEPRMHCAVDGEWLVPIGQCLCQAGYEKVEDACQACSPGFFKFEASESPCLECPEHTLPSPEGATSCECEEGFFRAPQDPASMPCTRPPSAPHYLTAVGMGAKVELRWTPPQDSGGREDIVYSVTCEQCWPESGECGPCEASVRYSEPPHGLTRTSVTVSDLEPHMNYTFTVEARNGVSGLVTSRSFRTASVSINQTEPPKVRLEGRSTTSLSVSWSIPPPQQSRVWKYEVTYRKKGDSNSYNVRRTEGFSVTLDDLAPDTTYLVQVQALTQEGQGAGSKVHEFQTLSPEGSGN

Binder	Ka [M⁻¹]	Kd [nM]	Ratio (KD against naked hu2H11) [fold]	koff [s⁻¹]	kon [M⁻¹ s⁻¹]
hu2H11R35R74-PEG4-NHAc-DM4 (D/A 8.4) (antibody, V domains shown, DM4 through PEG4-NHAc linker on lysine residues, sites not given; average D/A 8.4 per antibody, Antibody-drug conjugate of hu2H11R35R74; constant regions as for m2) VH: QVQLVQSGAEVVKPGASVKISCKASGYTFTAYYMHWVKQSPVQSLEWIGLVNPYNGFSSYNQKFQGKASLTVDRSSSTAYMELHSLTSEDSAVYYCAREFYGYRYFDVWGQGTAVTVSS VL: not shown	3.76e+09	0.266	0.9	0.00111	4.15e+06
hu2H11R35R74-PEG4-NHAc-DM4 (D/A 7.4) (antibody, V domains shown, DM4 through PEG4-NHAc linker on lysine residues, sites not given; average D/A 7.4 per antibody, Antibody-drug conjugate of hu2H11R35R74; constant regions as for m2) VH: QVQLVQSGAEVVKPGASVKISCKASGYTFTAYYMHWVKQSPVQSLEWIGLVNPYNGFSSYNQKFQGKASLTVDRSSSTAYMELHSLTSEDSAVYYCAREFYGYRYFDVWGQGTAVTVSS VL: not shown	3.64e+09	0.275	0.9	0.00123	4.47e+06
hu2H11R35R74-PEG4-NHAc-DM4 (D/A 9.3) (antibody, V domains shown, DM4 through PEG4-NHAc linker on lysine residues, sites not given; average D/A 9.3 per antibody, Antibody-drug conjugate of hu2H11R35R74; constant regions as for m2) VH: QVQLVQSGAEVVKPGASVKISCKASGYTFTAYYMHWVKQSPVQSLEWIGLVNPYNGFSSYNQKFQGKASLTVDRSSSTAYMELHSLTSEDSAVYYCAREFYGYRYFDVWGQGTAVTVSS VL: not shown	2.38e+09	0.421	1.4	0.00129	3.08e+06
hu2H11R35R74-PEG4-NHAc-DM4 (D/A 5.6) (antibody, V domains shown, DM4 through PEG4-NHAc linker on lysine residues, sites not given; average D/A 5.6 per antibody, Antibody-drug conjugate of hu2H11R35R74; constant regions as for m2) VH: QVQLVQSGAEVVKPGASVKISCKASGYTFTAYYMHWVKQSPVQSLEWIGLVNPYNGFSSYNQKFQGKASLTVDRSSSTAYMELHSLTSEDSAVYYCAREFYGYRYFDVWGQGTAVTVSS VL: not shown	3.8e+09	0.263	0.9	0.00115	4.35e+06
hu2H11R35R74-PEG4-NHAc-DM4 (D/A 6.3) (antibody, V domains shown, DM4 through PEG4-NHAc linker on lysine residues, sites not given; average D/A 6.3 per antibody, Antibody-drug conjugate of hu2H11R35R74; constant regions as for m2) VH: QVQLVQSGAEVVKPGASVKISCKASGYTFTAYYMHWVKQSPVQSLEWIGLVNPYNGFSSYNQKFQGKASLTVDRSSSTAYMELHSLTSEDSAVYYCAREFYGYRYFDVWGQGTAVTVSS VL: not shown	3.55e+09	0.282	0.9	0.00119	4.21e+06
hu2H11R35R74 (antibody, V domains shown, only the variable domains are tied by name to humanized 2H11R35R74; also called humanized 2H11R35R74; naked hu2H11R35R74) VH: QVQLVQSGAEVVKPGASVKISCKASGYTFTAYYMHWVKQSPVQSLEWIGLVNPYNGFSSYNQKFQGKASLTVDRSSSTAYMELHSLTSEDSAVYYCAREFYGYRYFDVWGQGTAVTVSS VL: not shown	4.59e+09	0.218	0.7	0.00115	5.25e+06
hu2H11 (antibody, V domains shown, Humanized IgG made in CHO cells; also called hu53.2H11; humanized 53.2H11) VH: QVQLVQSGAEVVKPGASVKISCKASGYTFTAYYMHWVKQSPVQSLEWIGLVNPYNGFSSYNQKFQGKASLTVDKSSSTAYMELHSLTSEDSAVYYCAREFYGYRYFDVWGQGTAVTVSS VL: not shown	3.39e+09	0.298	1	0.0011	3.71e+06
hu2H11-PEG4-NHAc-DM4 (D/A 7.5) (antibody, V domains shown, DM4 through PEG4-NHAc linker on surface lysine residues, sites not given; average D/A 7.5 per antibody, Antibody-drug conjugate of hu2H11; also called conjugated hu2H11) VH: QVQLVQSGAEVVKPGASVKISCKASGYTFTAYYMHWVKQSPVQSLEWIGLVNPYNGFSSYNQKFQGKASLTVDKSSSTAYMELHSLTSEDSAVYYCAREFYGYRYFDVWGQGTAVTVSS VL: not shown	6.16e+08	1.62	5.4	0.00242	1.49e+06

The binders below were run against T2, EphA2 receptor on tumor cells (human, UniProt P29317 24-976) (assay: cell-based or functional assay).
T2 sequence (P29317 24-976): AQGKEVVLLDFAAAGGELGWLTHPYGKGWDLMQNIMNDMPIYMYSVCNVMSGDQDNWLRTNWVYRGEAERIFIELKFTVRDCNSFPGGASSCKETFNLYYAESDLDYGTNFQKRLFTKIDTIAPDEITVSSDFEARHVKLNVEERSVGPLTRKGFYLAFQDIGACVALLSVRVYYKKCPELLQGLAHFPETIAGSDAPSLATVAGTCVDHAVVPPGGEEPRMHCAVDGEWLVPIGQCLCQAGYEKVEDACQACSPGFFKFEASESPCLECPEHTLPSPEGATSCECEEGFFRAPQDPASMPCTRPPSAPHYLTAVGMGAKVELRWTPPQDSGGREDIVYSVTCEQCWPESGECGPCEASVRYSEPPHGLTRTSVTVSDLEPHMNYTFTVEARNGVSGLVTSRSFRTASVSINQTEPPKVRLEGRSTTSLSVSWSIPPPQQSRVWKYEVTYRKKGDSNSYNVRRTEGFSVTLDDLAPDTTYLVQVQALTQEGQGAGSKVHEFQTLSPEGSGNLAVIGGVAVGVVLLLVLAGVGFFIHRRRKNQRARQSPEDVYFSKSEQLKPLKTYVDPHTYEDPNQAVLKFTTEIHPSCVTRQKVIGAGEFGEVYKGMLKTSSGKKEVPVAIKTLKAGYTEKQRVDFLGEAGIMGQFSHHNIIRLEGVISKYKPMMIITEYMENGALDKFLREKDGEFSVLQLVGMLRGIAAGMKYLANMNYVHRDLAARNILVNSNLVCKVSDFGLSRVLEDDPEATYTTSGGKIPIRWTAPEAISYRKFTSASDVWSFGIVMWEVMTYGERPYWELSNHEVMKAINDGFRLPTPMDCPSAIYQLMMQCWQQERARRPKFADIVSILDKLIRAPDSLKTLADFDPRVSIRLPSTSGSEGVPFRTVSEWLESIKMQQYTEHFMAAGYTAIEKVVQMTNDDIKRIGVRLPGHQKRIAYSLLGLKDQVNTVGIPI

Binder	IC50 (pM), + naked hu2H11R35R74 (1 uM), MDA MB231 cells [pM]	IC50 (pM), ADC alone, MDA MB231 cells, 14C thymidine uptake [pM]	ratio of IC50s (+ naked hu2H11R35R74 / ADC alone)
hu2H11-R35R74-PEG4-AcNH-DM4 (DAR 5.9) (antibody, V domains shown, DM4 through PEG4-AcNH linker on lysine residues, sites not given; average DAR 5.9) VH: QVQLVQSGAEVVKPGASVKISCKASGYTFTAYYMHWVKQSPVQSLEWIGLVNPYNGFSSYNQKFQGKASLTVDRSSSTAYMELHSLTSEDSAVYYCAREFYGYRYFDVWGQGTAVTVSS VL: not shown	29700	147	202
hu2H11-R35R74-PEG4-Allyl-DM4 (DAR 5.3) (antibody, V domains shown, DM4 through PEG4-Allyl linker on lysine residues, sites not given; average DAR 5.3) VH: QVQLVQSGAEVVKPGASVKISCKASGYTFTAYYMHWVKQSPVQSLEWIGLVNPYNGFSSYNQKFQGKASLTVDRSSSTAYMELHSLTSEDSAVYYCAREFYGYRYFDVWGQGTAVTVSS VL: not shown	7820	161	49
hu2H11-R35R74-Acetyl-DM4 (DAR 6.5) (antibody, V domains shown, DM4 through Acetyl linker, sites not given; average DAR 6.5) VH: QVQLVQSGAEVVKPGASVKISCKASGYTFTAYYMHWVKQSPVQSLEWIGLVNPYNGFSSYNQKFQGKASLTVDRSSSTAYMELHSLTSEDSAVYYCAREFYGYRYFDVWGQGTAVTVSS VL: not shown	19500	185	105
hu2H11-R35R74-PEG4-AcNMe-DM4 (DAR 5.4) (antibody, V domains shown, DM4 through PEG4-AcNMe linker on lysine residues, sites not given; average DAR 5.4) VH: QVQLVQSGAEVVKPGASVKISCKASGYTFTAYYMHWVKQSPVQSLEWIGLVNPYNGFSSYNQKFQGKASLTVDRSSSTAYMELHSLTSEDSAVYYCAREFYGYRYFDVWGQGTAVTVSS VL: not shown	36400	217	168
hu2H11-R35R74-PEG8-AcNH-DM4 (DAR 4.9) (antibody, V domains shown, DM4 through PEG8-AcNH linker on lysine residues, sites not given; average DAR 4.9) VH: QVQLVQSGAEVVKPGASVKISCKASGYTFTAYYMHWVKQSPVQSLEWIGLVNPYNGFSSYNQKFQGKASLTVDRSSSTAYMELHSLTSEDSAVYYCAREFYGYRYFDVWGQGTAVTVSS VL: not shown	25000	400	62

Target: T2, EphA2 receptor on tumor cells
Assay: cell-based or functional assay
Remark: another data set of the same source

Binder	IC50 (M), cytotoxic activity on Lovo cells (WST8, 5 days) [M]
hu2H11-PEG4-Mal-DM4 (DAR 6.99) (antibody, V domains shown, DM4 through PEG4-Mal linker on lysine residues, sites not given; average DAR 6.99) VH: QVQLVQSGAEVVKPGASVKISCKASGYTFTAYYMHWVKQSPVQSLEWIGLVNPYNGFSSYNQKFQGKASLTVDKSSSTAYMELHSLTSEDSAVYYCAREFYGYRYFDVWGQGTAVTVSS VL: not shown	1.22e-10
hu2H11R35R74-PEG4-Mal-DM4 (DAR 6.70) (antibody, V domains shown, DM4 through PEG4-Mal linker on lysine residues, sites not given; average DAR 6.70) VH: QVQLVQSGAEVVKPGASVKISCKASGYTFTAYYMHWVKQSPVQSLEWIGLVNPYNGFSSYNQKFQGKASLTVDRSSSTAYMELHSLTSEDSAVYYCAREFYGYRYFDVWGQGTAVTVSS VL: not shown	7.96e-11

Target: T2, EphA2 receptor on tumor cells
Assay: cell-based or functional assay
Remark: another data set of the same source

Binder	MDA-MB231 + naked 2H11 (1 uM) IC50 (nM), 14C thymidine uptake [nM]	MDA-MB231 IC50 (nM), 14C thymidine uptake [nM]	Ratio of IC50s (with naked 2H11 / alone) on MDA-MB231
hu2H11-SPDB-DM4 (DAR 3.93) (antibody, V domains shown, DM4 through SPDB linker on lysine residues, sites not given; average DAR 3.93) VH: QVQLVQSGAEVVKPGASVKISCKASGYTFTAYYMHWVKQSPVQSLEWIGLVNPYNGFSSYNQKFQGKASLTVDKSSSTAYMELHSLTSEDSAVYYCAREFYGYRYFDVWGQGTAVTVSS VL: not shown	8.1	1.1	7
hu2H11-PEG4-NHAc-DM4 (DAR 5.3) (antibody, V domains shown, DM4 through PEG4-NHAc linker on lysine residues, sites not given; average DAR 5.3) VH: QVQLVQSGAEVVKPGASVKISCKASGYTFTAYYMHWVKQSPVQSLEWIGLVNPYNGFSSYNQKFQGKASLTVDKSSSTAYMELHSLTSEDSAVYYCAREFYGYRYFDVWGQGTAVTVSS VL: not shown	27.4	0.2	114
hu2H11R35R74-SPDB-DM4 (DAR 3.97) (antibody, V domains shown, DM4 through SPDB linker on lysine residues, sites not given; average DAR 3.97) VH: QVQLVQSGAEVVKPGASVKISCKASGYTFTAYYMHWVKQSPVQSLEWIGLVNPYNGFSSYNQKFQGKASLTVDRSSSTAYMELHSLTSEDSAVYYCAREFYGYRYFDVWGQGTAVTVSS VL: not shown	11.5	1.2	9
hu2H11R35R74-PEG4-Mal-DM4 (DAR 6.1) (antibody, V domains shown, DM4 through PEG4-Mal linker on lysine residues, sites not given; average DAR 6.1) VH: QVQLVQSGAEVVKPGASVKISCKASGYTFTAYYMHWVKQSPVQSLEWIGLVNPYNGFSSYNQKFQGKASLTVDRSSSTAYMELHSLTSEDSAVYYCAREFYGYRYFDVWGQGTAVTVSS VL: not shown	25.1	0.1	228
hu2H11R35R74-PEG4-NHAc-DM4 (DAR 5.5) (antibody, V domains shown, DM4 through PEG4-NHAc linker on lysine residues, sites not given; average DAR 5.5) VH: QVQLVQSGAEVVKPGASVKISCKASGYTFTAYYMHWVKQSPVQSLEWIGLVNPYNGFSSYNQKFQGKASLTVDRSSSTAYMELHSLTSEDSAVYYCAREFYGYRYFDVWGQGTAVTVSS VL: not shown	80.8	0.06	1350
